Columns and labels:
[1] = molecular target: His-AccD, β subunit of the 3-methylcrotonyl-CoA carboxylase (MCC) complex of Xanthomonas citri subsp. citri (XAC0264) (Xanthomonas citri subsp. citri) (UniProt Q8PJ30); test: SEC; Superdex S200, 500 μg of AccC, AccD or the complex (preincubated mixture of both) loaded; 50 mM potassium phosphate pH 7.6, 50 mM NaCl, 0.5 mM DTT; calibrated with mass standards; fractions of the complex analysed by SDS-PAGE
[2] = system: CC(C)=CC(=O)SCCNC(=O)CCNC(=O)[C@H](O)C(C)(C)COP(=O)(O)OP(=O)(O)OC[C@H]1O[C@@H](n2cnc3c(N)ncnc32)[C@H](O)[C@@H]1OP(=O)(O)O; test: purified protein; conditions: co-substrates ATP and bicarbonate, Mg; 3-methylcrotonyl-CoA varied 1-1000 μM; enzyme complex 0.05 μM (Fig 4 legend says 0.5 μM)

Row | Substance | stoichiometry N [1] | Km [2] [µM]
1 | His-AccC, α subunit of the 3-methylcrotonyl-CoA carboxylase (MCC) complex of Xanthomonas citri subsp. citri (XAC0263) (from UniProt A0AAI8ER48 1-675) (natural protein) | 1 | 
2 | His-AccD, β subunit of the 3-methylcrotonyl-CoA carboxylase (MCC) complex of Xanthomonas citri subsp. citri (XAC0264) (from UniProt Q8PJ30 1-295) (natural protein) | 6 | 
3 | MCC complex (His-AccC / His-AccD, α6β6) (Xanthomonas citri subsp. citri 306) |  | 71.4

Source: publication PMC5991677, “3-methylcrotonyl Coenzyme A (CoA) carboxylase complex is involved in the Xanthomonas citri subsp. citri lifestyle during citrus infection” (PLoS ONE, 2018)
